Laboratory results from article PMC13626732.

How the values were obtained:
[1] = biological target: actin-related protein (Arp) 2/3 complex (UniProt P61160); assay: SPR; Arpin variants and dual-tailed peptides against the Arp2/3 complex; who was immobilised was not shown; hArpin as the dimer-enriched population
[2] = biological target: GST-aCT (chimeric protein with Arpin's CT fused to the C-terminus of glutathione S-transferase); assay: SEC; recombinant GST-aCT

Kd [1] | stoichiometry N [2] | Substance
17.8 µM | – | ArpinCT (residues 192–226) (from UniProt Q7Z6K5 192-226) (peptide)
2.5 µM | 2 | GST-aCT (chimeric protein with Arpin's CT fused to the C-terminus of glutathione S-transferase)
14.1 µM | – | full-length human Arpin (hArpin) (from UniProt Q7Z6K5 1-226) (natural protein)
